Marks after values point to notes of the source that are not given here.

The values that follow come from US20160289280A1, “Fusion protein of recombinant ganoderma immunoregulatory protein and human serum albumin, preparation method thereof, and application thereof” (priority 2013, published 2016).

Assay [1] relates to leukocytes. As to the kind of experiment: treatment of rat models with leucopenia caused by cyclophosphamide, leukocyte count. Type of assay: in vivo. The settings on record: for leukocyte number before: baseline after CP modeling, before treatment. From the text: Utilizing Wistar rats in the experiments, wherein 18 rats weighing about 100 g are utilized. […] The experiment has an rLZ-8 low-dosage group, an rLZ-8 middle-dosage group, an rLZ-8 high-dosage group, an rLZ-8-HSA low-dosage group, an rLZ-8-HSA middle-dosage group, an rLZ-8-HSA high-dosage group, and a positive medicine control group (utilizing the […]®). […] On the third day, the blood is sampled from the tail vein, and the leukocytes are counted by a cytoanalyzer. After successful modeling, the rats of each the group are respectively treated with the rLZ-8, the three kinds of the fusion proteins, or the positive medicine (the […]®) with the corresponding dosage, and the equal sterile saline is given to the rats of the normal control and a CP group. The blood is sampled from the tail vein on the first, third and seventh treatment days, and the leukocytes are counted by the cytoanalyzer. Medicine efficacy is analyzed according to a number difference of the leukocyte between before and after the treatment.

For assay [2], the system named is mouse S180 Ehrlich ascites tumor. As to the kind of experiment: in vitro inhibition effect on mouse S180 Ehrlich ascites tumor, WST-1 method. The following applies: 24 h, x ± s, n = 9. Type of assay: cell-based. The protocol:
In vitro experiment: testing the inhibition effect of the fusion protein rLZ-8-HSA on the mouse 5180 Ehrlich ascites tumor through the WST-1 method, preparing tissue suspension of the mouse S180 Ehrlich ascites tumor; adding 100 μl the tissue suspension into 900 μl 2% glacial acetic acid and counting with a microscope; adjusting a tissue concentration to 2×10^5/ml with DMEM comprising 2% calf serum; respectively preparing the fusion protein rLZ-8-HSA and the rLZ-8 with same molar concentration gradient, wherein there are 3 gradient concentrations, each concentration occupies 9 wells with 100 μl per well; adding tissue suspension with a concentration of 2×10^5/ml with 100 μl per well; shaking for evenly mixing, and then putting into a 37° C., 5% CO2 incubation device to incubate for 24 h; after incubation, adding WST-1 with 20 μl per well; putting into the 37° C., 5% CO2 incubation device to incubate for 3 h, then testing OD450 (with a BIO-RAD); wherein results are listed in table 5.
A general note: Tetrazolium assays rely on reduction of a dye to a coloured formazan, in cell work by metabolically active cells.

Assay [3] has as its system mouse melanoma cells B16-F10. As to the kind of experiment: mouse B16-F10 transplanted tumor model, in situ tumor weight. The assay is classed as in vivo. The following applies: tail vein once a day, 28 days. The protocol: In vivo experiment: firstly, establishing a mouse tumor mould, wherein mouse melanoma cells B16-F10 is cultured with the DMEM comprising 10% fetal calf serum at 37° C. in a CO2 incubation device; slowly subcutaneously injecting 200 μl B16-F10 cell suspension (comprising 1×10^7 cells) with a 1 ml injector at mouse dorsal-ventral skin, so as to establish a mouse transplanted tumor mould.

The mark [4] stands for this setting: high-dosage 60 μg/kg (LZ-8 dosage).
The mark [5] stands for this setting: low-dosage 15 μg/kg (LZ-8 dosage).
The mark [6] stands for this setting: middle-dosage 30 μg/kg (LZ-8 dosage).

B1: rLZ-8: recombinant ganoderma immunoregulatory protein which is not fused, comparator (protein, UniProt P14945 2-111, looked up)
Immunomodulatory protein Ling …: SDTALIFRLAWDVKKLSFDYTPNWGRGNPNNFIDTVTFPKVLTDKAYTYRVAVSGRNLGVKPSYAVESDGSQKVNFLEYNSGYGIADTNTIQVFVVDPDTNNDFIIAQWN
On to B1, for which the figures for the “leukocyte number on the first treatment day” value in assay [1] (setting [4]), in assay [1] (setting [5]) and in assay [1] (setting [6]) were 5.4e+09 L⁻¹, 4.6e+09 L⁻¹ and 5.1e+09 L⁻¹, respectively. Moreover, the “leukocyte number on the seventh treatment day” value turned out to be 1.45e+10 L⁻¹ in assay [1] (setting [4]), 1.12e+10 L⁻¹ in assay [1] (setting [5]) and 1.278e+10 L⁻¹ in assay [1] (setting [6]). Moreover, the “leukocyte number on the third treatment day” value in assay [1] (setting [4]) was found to be 9.6e+09 L⁻¹; in assay [1] (setting [5]) it was 9.3e+09 L⁻¹; in assay [1] (setting [6]), 9.7e+09 L⁻¹. Moreover, the leukocyte number before was determined as 4.09e+09 L⁻¹ in assay [1] (setting [4]), 3.71e+09 L⁻¹ in assay [1] (setting [5]) and 3.12e+09 L⁻¹ in assay [1] (setting [6]). The “OD450, inhibition effect on mouse S180 Ehrlich ascites tumor” value in assay [2] (protein 5.0 × 10^−9 mol/L) turned out to be 0.453 ± 0.23; in assay [2] (protein 10.0 × 10^−9 mol/L), 0.366 ± 0.31; in assay [2] (protein 15.0 × 10^−9 mol/L), 0.345 ± 0.27. For the same molecule, the results for the tumor inhibition rate in assay [3] (high-dosage 492 μg/kg (LZ-8)), in assay [3] (low-dosage 123 μg/kg (LZ-8)) and in assay [3] (middle-dosage 246 μg/kg (LZ-8)) were 83.04 ± 0.51 %, 56.72 ± 0.41% and 64.91 ± 0.77%, respectively. In addition, the tumor weight was found to be 0.25 ± 0.04 g in assay [3] (high-dosage 492 μg/kg (LZ-8)), 0.53 ± 0.21 g in assay [3] (low-dosage 123 μg/kg (LZ-8)) and 0.43 ± 0.17 g in assay [3] (middle-dosage 246 μg/kg (LZ-8)).

B2: rLZ-8-HSA: fusion protein of ganoderma immunoregulatory protein (LZ-8) and human serum albumin, linker GGGGSS, SEQ ID NO. 1 (protein)
chain: SDTALIFRLAWDVKKLSFDYTPNWGRGNPNNFIDTVTFPKVLTDKAYTYRVAVSGRNLGVKPSYAVESDGSGKVNFLEYNSGYGIADTNTIGVFVVDPDTNNDFIIAGWNGGGGSSMKWVTFISLLFLFSSAYSRGVFRRDAHKSEVAHRFKDLGEENFKALVLIAFAGYLGGCPFEDHVKLVNEVTEFAKTCVADESAENCDKSLHTLFGDKLCTVATLRETYGEMADCCAKGEPERNECFLGHKDDNPNLPRLVRPEVDVMCTAFHDNEETFLKKYLYEIARRHPYFYAPELLFFAKRYKAAFTECCGAADKAACLLPKLDELRDEGKASSAKGRLKCASLGKFGERAFKAWAVARLSGRFPKAEFAEVSKLVTDLTKVHTECCHGDLLECADDRADLAKYICENGDSISSKLKECCEKPLLEKSHCIAEVENDEMPADLPSLAADFVESKDVCKNYAEAKDVFLGMFLYEYARRHPDYSVVLLLRLAKTYETTLEKCCAAADPHECYAKVFDEFKPLVEEPGNLIKGNCELFEGLGEYKFGNALLVRYTKKVPGVSTPTLVEVSRNLGKVGSKCCKHPEAKRMPCAEDYLSVVLNGLCVLHEKTPVSDRVTKCCTESLVNRRPCFSALEVDETYVPKEFNAETFTFHADICTLSEKERGIKKGTALVELVKHKPKATKEGLKAVMDDFAAFVEKCCKADDKETCFAEEGKKLVAASGAALGL
modifications: rLZ-8-HSA sequence
As to B2, in assay [1] (first treatment day), the “leukocyte number relative to the rLZ-8 groups with the same dosage” value is “about 2 times”. For the same molecule, the figures for the “leukocyte number on the first treatment day” value in assay [1] (setting [4]), in assay [1] (setting [5]) and in assay [1] (setting [6]) were 8.4e+09 L⁻¹, 8.5e+09 L⁻¹ and 9.2e+09 L⁻¹, respectively. The “leukocyte number on the seventh treatment day” value in assay [1] (setting [4]) worked out at 1.55e+10 L⁻¹; in assay [1] (setting [5]), 1.32e+10 L⁻¹; in assay [1] (setting [6]), 1.34e+10 L⁻¹. Besides, the “leukocyte number on the third treatment day” value stood at 1.44e+10 L⁻¹ in assay [1] (setting [4]), 1.08e+10 L⁻¹ in assay [1] (setting [5]) and 1.198e+10 L⁻¹ in assay [1] (setting [6]). In addition, the values for the leukocyte number before in assay [1] (setting [4]), in assay [1] (setting [5]) and in assay [1] (setting [6]) were 3.33e+09 L⁻¹, 3.11e+09 L⁻¹ and 2.89e+09 L⁻¹, respectively. The “OD450, inhibition effect on mouse S180 Ehrlich ascites tumor” value in assay [2] (protein 5.0 × 10^−9 mol/L) turned out to be 0.408 ± 0.21; in assay [2] (protein 10.0 × 10^−9 mol/L) it was 0.233 ± 0.18; in assay [2] (protein 15.0 × 10^−9 mol/L), 0.127 ± 0.15. Also, the tumor inhibition rate in assay [3] (high-dosage 492 μg/kg (LZ-8)) is 89.51 ± 0.88 %; in assay [3] (low-dosage 123 μg/kg (LZ-8)), 71.77 ± 0.31 %; in assay [3] (middle-dosage 246 μg/kg (LZ-8)), 78.22 ± 0.47 %. For the same molecule, the values for the tumor weight in assay [3] (high-dosage 492 μg/kg (LZ-8)), in assay [3] (low-dosage 123 μg/kg (LZ-8)) and in assay [3] (middle-dosage 246 μg/kg (LZ-8)) were 0.13 ± 0.05 g, 0.35 ± 0.11 g and 0.27 ± 0.14 g, respectively.
